Here are results for 29 substances from US12374423B2, “Systems and methods for MHC class II epitope prediction” (priority 2017, dated 2025).

The target of the first assay is T1, MHCII (I-A^b) of murine bone marrow-derived dendritic cells (Mus musculus, UniProt P14434+P14483).
T1 construct: immunoprecipitation of mature peptide-MHCII complexes with monoclonal Y3P antibody; endogenous in cells; host or cells: primary BMDCs from C57/BL6 (WT) mice, exposed to live L. monocytogenes EGDe
T1 sequence (P14434 24-256): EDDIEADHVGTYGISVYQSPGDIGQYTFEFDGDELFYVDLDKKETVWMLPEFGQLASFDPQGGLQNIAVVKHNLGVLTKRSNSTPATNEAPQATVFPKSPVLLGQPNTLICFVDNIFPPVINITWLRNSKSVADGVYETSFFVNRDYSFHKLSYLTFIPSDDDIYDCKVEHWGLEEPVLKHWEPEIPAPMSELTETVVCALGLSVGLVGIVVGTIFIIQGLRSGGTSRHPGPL
T1 sequence (P14483 28-265): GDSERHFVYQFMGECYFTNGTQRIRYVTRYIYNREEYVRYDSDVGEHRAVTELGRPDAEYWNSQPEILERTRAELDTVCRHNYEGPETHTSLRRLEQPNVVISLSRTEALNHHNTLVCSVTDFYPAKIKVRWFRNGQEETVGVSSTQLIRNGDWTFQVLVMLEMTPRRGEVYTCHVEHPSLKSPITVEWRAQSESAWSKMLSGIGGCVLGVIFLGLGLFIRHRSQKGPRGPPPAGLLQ
Briefly: MHCII peptidomics of BMDCs exposed to live Listeria (iTRAQ LC-MS/MS of MHCII-associated peptides). It is filed as cell-based. The settings on record: Listeria peptide found by MHCII peptidomics that matches the BOTA prediction. From the text: To validate BOTA, Applicants tested its performance in predicting MHCII-restricted epitopes from Listeria monocytogenes, one of the most common foodborne pathogens associated with a relatively high mortality rate (Scallan et al., 2011). Despite the epidemiological impact of listeriosis, the number of experimentally validated CD4 T cell epitopes encoded within the Listeria genome is limited. Thus, Applicants first sought to identify MHCII-associated peptides in BMDCs exposed to live Listeria by peptidomics. In these experiments, primary BMDCs were exposed to live L. monocytogenes for 10 minutes or 6 hours prior to immunoprecipitation of mature peptide-MHCII complexes with monoclonal Y3P antibody (Janeway et al., 1984). Associated peptides from biological replicates of the 10-minute and 6-hour timepoints were analyzed using mass spectrometry (LC-MS/MS) (FIGS. 9A and B).
Immuno-affinity purification of MHCII complexes. Bone marrow was harvested from C57/BL6 (WT), Atg16l1^f/f×CD11c-Cre (Conway et al., 2013b), and Atg5^f/f×CD11c-Cre (Conway et al., 2013a) mice. BMDCs were differentiated from bone marrow for seven days in antibiotic-free DMEM supplemented with 20% FBS and GM-CSF (2% conditioned TOPO medium). In parallel, L. monocytogenes strain EGDe (ATCC BA-679) was cultured overnight in BHI medium, washed in PBS, and cocultured with BMDCs at an MOI of approximately 100:1 for 30 minutes. Tissue culture dishes containing cocultures were washed in PBS and cultured for an additional 10 minutes or 6 hours in DC media containing gentamicin (30 μg/ml). BMDCs were then harvested by scraping, washed in PBS, and lysed in 1% NP-40, 4 mM MgCl2, 6 μg/ml DNaseI from bovine pancreas (Sigma Aldrich), and PBS pH 7.4 at 250×10^6 cells/4 ml lysis buffer/sample. Clarified lysates were subjected to immunoprecipitation overnight at 4° C. with gentle rotation. Immunoprecipitation was performed with NHS Mag Sepharose (GE Healthcare) covalently coupled to anti-H2-IA (clone Y3P (Janeway et al., 1984)). Each sample contained 130 μl packed beads and approximately 650 μg antibody. Beads were then washed twice in PBS containing 0.1% NP-40 and three times in PBS.
MHC-peptide elution and desalting. Peptides were eluted from MHC complexes and desalted on in-house-built Empore C18 StageTips (3M, 2315) as described previously (Rappsilber et al., 2007). Sample loading, washes, and elution were performed on a tabletop centrifuge at a maximum speed of 2,000-3,500×g. Briefly, StageTips were equilibrated with 2×100 μL washes of methanol, 2×50 μL washes of 50% acetonitrile/0.1% formic acid (FA), and 2×100 μL washes of 1% FA. In a tube, the dried beads from MHC-associated peptide IPs were thawed at 4° C., reconstituted in 50 μL 3% ACN/5% FA, and loaded onto StageTips. The beads were washed with 50 μL 1% FA, and peptides were further eluted using two rounds of 5-minute incubations in 10% acetic acid. The combined wash and elution volumes were combined and loaded onto StageTips. The tubes containing the IP beads were washed again with 50 μL 1% FA, and this volume was also loaded onto StageTips. Peptides were washed twice on the StageTip with 100 μL 1% FA. Peptides were eluted using a step gradient of 20 μL 20% ACN/0.1% FA, 20 μL 40% ACN/0.1% FA, and 20 μL 60% ACN/0.1% FA. Step elutions were combined and dried to completion.
iTRAQ 4-plex labeling for quantitative proteomics.
As for “15028 (ERWNEKYAQAYPNVSAKID; Listeria sp) [compound 15028]”, the “Peptidomics Hit” value was “..........[…]”.
Take “15029 (ETQHYYGLPVADSAIDRGPL; Listeria sp) [compound 15029]”: the “Peptidomics Hit” value is reported as “...APGQETQHYYGLPVADSAIDR”.
“15030 (FRYVFDTAKATAASSYPGS; Listeria sp) [compound 15030]”: the “Peptidomics Hit” value is given as “......ADFRYVFDTAKATAASSYPG”.
For the substance “15031 (DTTVKFTLPTVAPAFENTIKT; Listeria sp) [compound 15031]”, the “Peptidomics Hit” value is given as “AVDDTTVKFTLPTVAPAFENT”.
For the substance “15032 (EKVVATPVSNVSTSSATSS; Listeria sp) [compound 15032]”, the “Peptidomics Hit” value is “GTKEKVVATPVSNVSTSSA”.
“15033 (INQAYTGSTALSDGLNKM; Listeria sp) [compound 15033]”: the “Peptidomics Hit” value was “GGINQAYTGSTALSDGLN”.
On the same count and under the same terms, with “15034 (GIAVTAFAAPTIASASTVVV; Listeria sp) [compound 15034]” the entry was “IAVTAFAAPTIASA”; with “15036 (TVRAKSKTYPVYINEFALED; Listeria sp) [compound 15036]”, “TVRAKSKTYPVYInEFALE”.

The assay is the same for the next values; noted with them: MHCII-bound peptide abundance, BMDCs, 6 hr versus 10 min after Listeria exposure.
As for “14980 (WNEKYAQAYPNVS; Listeria sp) [compound 14980]”, the “logFC (Log2 Fold Change Listeria 6 hr versus 10 min)” value is reported as 1.377.
Still for that read-out and setting: with “14981 (WNEKYAQAYPNVSAKI; Listeria sp) [compound 14981]” the figure was 1.202; with “14982 (VERWNEKYAQAYPNVS; Listeria sp) [compound 14982]”, 0.2849.
On the same count and under the same terms, with “14983 (ERWNEKYAQAYPNVS; Listeria sp) [compound 14983]” the figure was 0.2069.
With “14985 (VWTKPNKIEGAQKISALSTY; Listeria sp) [compound 14985]”, the “logFC (Log2 Fold Change Listeria 6 hr versus 10 min)” value is -0.2625.
The same measure, in the same setting: the result for “14995 (EVEDLNQPLAAHVNYE; Listeria sp) [compound 14995]” reads 0.1526.
The same measure, in the same setting: the result for “15016 (SNVNHVLDIGYGGGSNVKN; Listeria sp) [compound 15016]” reads 0.227.
Still for that read-out and setting: the result for “15017 (EVVYHNMKQDLE; Listeria sp) [compound 15017]” reads -0.1708.
“15018 (DGLKAGEHFFAAGKDWPDAIYANGDEVAAGVMYH; Listeria sp) [compound 15018]”: the “logFC (Log2 Fold Change Listeria 6 hr versus 10 min)” value was -0.4271.
Still for that read-out and setting: with “15019 (EILLQKPNGERLTSFITL; Listeria sp) [compound 15019]” the figure was -0.04842; with “15020 (GLLMAKKYKMNLTIVIVN; Listeria sp) [compound 15020]”, -0.6291; with “15022 (MNRVMLPLQQMGAKMHGK; Listeria sp) [compound 15022]”, 0.1447.
On the same count and under the same terms, with “15023 (VMASDYTRGLSIRAIELVFENL; Listeria sp) [compound 15023]” the figure was 0.2507.
Still for that read-out and setting: the result for “15024 (YMEKHSVSRLVGAPP; Listeria sp) [compound 15024]” reads -0.4422; that for “15025 (KTASGIVLPDSAKEKPQSGKIVAVGSGRVLD; Listeria sp) [compound 15025]”, -0.4963; that for “15026 (ESVYLSAQKENPRLFAKIETF; Listeria sp) [compound 15026]”, 0.5951.
In the case of “15027 (RDNYLFQLYEATGTPIHPMSPF; Listeria sp) [compound 15027]”, the “logFC (Log2 Fold Change Listeria 6 hr versus 10 min)” value is reported as -0.05049.

For a further assay, the system named is CD4 T cells. Briefly: IFNγ ELISPOT of splenocytes from Listeria-infected mice restimulated with synthetic peptides. It is filed as in vivo, mouse. Particulars: seven days after i.p. Listeria infection; splenocytes restimulated with 100 nM peptide. From the text:
FIG. 10—BOTA and MHCII peptidomics accurately predict immunodominance in vivo. […] At day 7, splenocytes were harvested and restimulated with the indicated peptides for quantification of the T cell response by IFNγ ELISPOT. Data represent the mean number of spots per 1×10^5 CD4 T cells±sd for n=6 mice.
Given that MHCII peptidomics and BOTA successfully identified Listeria peptides and features associated with efficient antigen presentation, Applicants sought to measure T cell responses to these epitopes in vivo. To quantify the CD4 T cell response directed to the top eight candidate Listeria epitopes, mice were sacrificed seven days after intraperitoneal (i.p.) infection with Listeria. T cells were restimulated in vitro with synthetic peptides, and IFN-γ responses were enumerated by ELISPOT. […] The remaining four epitopes elicited weaker responses near the limit of detection for ELISPOT (FIG. 10B).
Listeria infection and ELISPOT. L. monocytogenes strain EGDe (ATCC BA-679) was grown to log phase in BHI, washed in PBS, and used to inoculate mice by i.p. injection with a dose of 1×10^4 CFU/200 μl/mouse. Seven days after infection, spleens were harvested, red blood cells were lysed, and single cell suspensions were replated at 2.5×10^5/200 μl/well on 96-well ELISPOT plates (Millipore MAIPS4510) precoated with anti-IFNγ (BD Pharmingen 551881) at a concentration of 5 μg/ml in PBS. Peptides were added at a concentration of 100 nM to restimulate splenocytes overnight. After stimulation, plates were washed, blocked, and incubated with biotinylated anti-IFNγ (BD Pharmingen 551881) at a concentration of 2 μg/ml and streptavidin-AKP (BD Pharmingen 554065) at a dilution of 1:1000. After 60 minutes, plates were washed and developed with 3-amino-9-ethylcarbazole (AEC, Sigma-Aldrich, A6926). IFNγ-secreting cells were scanned and enumerated using an Immunospot Analyzer ELISpot reader (CTL). All samples were run in triplicate. The following peptides were synthesized by New England Peptide: lmo2185_293-312 […] (SEQ ID NO: 14986), lmo0202_189-204 […] (SEQ ID NO: 14981), lmo0135_150-169 […] (SEQ ID NO: 14997), lmo2558_533-553 […] (SEQ ID NO: 14984), lmo2360_289-306 […] (SEQ ID NO: 15009), lmo0186_285-303 […] (SEQ ID NO: 15005), lmo0582a_26-46 […] (SEQ ID NO: 15012), lmo0582b_12-25 […] (SEQ ID NO: 15013). To calculate the frequency of CD4^+ cells in each splenocyte sample from infected mice, an aliquot of cells from each mouse was stained for flow cytometric analysis. 1×10^6 cells were incubated with 2.4G2 Mouse Fc block in PBS/FBS (BD Pharmingen, 553142) for 20 min at 4° C. […] Fluorescently labeled cells were acquired on the FACSVerse flow cytometer (BD Biosciences) and analyzed using FlowJo Analysis Software (Tree Star).
Consider “ADFRYVFDTAKATAASSYPG (Listeria sp) [SEQ ID NO: 14986, Listeria peptide from lmo2185]”, for which the “T cell response (IFN-γ ELISPOT)” value is “Robust responses”.
Still for that read-out and setting: with “APGQETQHYYGLPVADSAIDR (Listeria sp) [SEQ ID NO: 14984, Listeria peptide from lmo2558 (ami)]” the entry was “Robust responses”.
Still for that read-out and setting: with “VDDTTVKFTLPTVAPAFENT (Listeria sp) [SEQ ID NO: 14997, Listeria peptide from lmo0135]” the entry was “Robust responses”.
Same read-out and setting: with “WNEKYAQAYPNVSAKI (Listeria sp) [SEQ ID NO: 14981, Listeria peptide from lmo0202 (hly) (LLO)]” the entry was “Robust responses”.
